# Laboratory results taken from article PMC8837555, “CRISPR and biochemical screens identify MAZ as a cofactor in CTCF-mediated insulation at Hox clusters”.
# T1: FLAG-MAZ (Mus musculus, UniProt P56671 1-477)
# T1 sequence: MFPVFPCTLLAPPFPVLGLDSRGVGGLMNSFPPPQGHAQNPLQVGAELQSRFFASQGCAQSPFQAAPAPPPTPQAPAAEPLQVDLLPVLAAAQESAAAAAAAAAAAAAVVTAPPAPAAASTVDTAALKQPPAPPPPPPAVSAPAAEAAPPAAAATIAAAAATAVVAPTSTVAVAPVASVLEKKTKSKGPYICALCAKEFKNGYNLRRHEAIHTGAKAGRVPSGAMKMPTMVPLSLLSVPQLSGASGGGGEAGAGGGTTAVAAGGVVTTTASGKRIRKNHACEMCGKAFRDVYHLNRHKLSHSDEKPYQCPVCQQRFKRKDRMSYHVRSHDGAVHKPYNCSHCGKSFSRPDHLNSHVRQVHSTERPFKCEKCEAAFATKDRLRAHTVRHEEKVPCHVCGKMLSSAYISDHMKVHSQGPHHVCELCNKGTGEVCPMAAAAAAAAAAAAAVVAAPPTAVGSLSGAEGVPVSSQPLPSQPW
# Target: T1, FLAG-MAZ
# Assay: EMSA; 1 mM ZnSO4, 5 mM MgCl2, salmon sperm DNA; 25 mM HEPES (pH not stated), 50 mM NaCl, 5% glycerol, 5 mM MgCl2, 1 mM ZnSO4, 2 μg salmon sperm DNA, 40 pM probe, 0.25-0.75 μg MAZ, 4 h at 30 °C; 5% gel, 0.25x
# Details: protein: recombinant; tags: FLAG (CβF vector); label: 32P (T4 PNK); blunt
row,Binder,binding result
1,maz.hoxd48 (WT) (dsDNA) DNA 1: CCTGGGTGGGAGGGGAATGGGAGGACACAAGAGCCACCCGTTCTTCTGCCCCGCCTTCCACCTCAG DNA 2: CTGAGGTGGAAGGCGGGGCAGAAGAACGGGTGGCTCTTGTGTCCTCCCATTCCCCTCCCACCCAGG,binds
2,maz.hoxa56.WT (dsDNA) DNA 1: GGAGTTGGGTGGAGGCAAGAGGGGTGGCGCGCGCGCCCTG DNA 2: CAGGGCGCGCGCGCCACCCCTCTTGCCTCCACCCAACTCC,binds
